Assay: yeast display, Sf9 membrane polyspecificity reagent, FACS + sequencing; frameworks hold sequencing errors
Summary of the method: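 Synthetic nanobody libraries on Saccharomyces cerevisiae BJ5465 were galactose-induced for 36–48 hours, stained 1 hour at 4 °C with 10% biotinylated, detergent-solubilized Sf9 membrane reagent and enriched on streptavidin microbeads. FACS then separated cells into low and high (top ~1%) gates by anti-HA (expression) and streptavidin (reagent binding) fluorescence. Genes were colony-PCR amplified, MiSeq 2 × 250 sequenced and CDR-length filtered. A clone's polyreactivity label is that of its gate of origin.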

Q: Which “polyreactivity (PSR sort gate)” value does the source give for “QVQLVESGGGLVQAGGSLRLSCAASGSIFPVYAMGWYRQAPGKERELVAAINSSGGSTYYADSVKWRFTISRDNAKNTVYLQMNSLKPEDTAVYYCAAEISTASYYAKTYDYWGQGTQVSVSS” here?
A: low polyreactivity

Q: Which “polyreactivity (PSR sort gate)” value does the source give for “QVQLVESGGGLVQAGGSLRLSCAASGNTFDPNAMGWYRQAPGKEREFVAAISTIGSSTYYADSVKGRFTISRDNAKNTVYLQMNSLKPEDTAVYYSNADYFQDRLDYWGQGTQVTVSS” here?
A: low polyreactivity

Q: Which “polyreactivity (PSR sort gate)” value does the source give for “QVQLVESGGGLVQAGGSLRLICAASGSTLFTYAMVWYRQAPGKERELVAAITSSGSTYYADSVKGRFTISRDNAKNTVYLQMNSLKQEDTAVYYCAVPGYRYTNYYYWGQGTQVTVSS” here?
A: low polyreactivity

Q: With “QVQLVESGGGLVQARGSLRLSCAASGFTFDTYAMGSYRQAPGKARELVAVLSRGGSTYYADSVKGRFTISRDKAKNTVYLQMNSLKPEDPAVYFCNAKHKQGRKQFKLGAGYYWGQGTQVTVSS” as the sequence, how does the “polyreactivity (PSR sort gate)” value read?
A: high polyreactivity

Q: For “QVQLVESGGGLVQAGGSLRLSCAASGSIYWRYAMGWYRQAPGKEMELVASITSGGGSTYYADSVKGRFTISRDNAKNTVYLQMNSLKPEDTAVYYCAAERYYSEAIFRSYDYWGQGTQVTLSS”, which “polyreactivity (PSR sort gate)” value is on record?
A: low polyreactivity

Q: For “QVQLVESGGGLVQAGGSLRLSCAASGSTFAVYGMGWYRQAPGKERELVAAISSSGARTYYADSVKGRFTISRDNAKNTVYLQMNSLKPEDTAVYYCAALPHRQAGYDYWGLGTQVTVSS”, which “polyreactivity (PSR sort gate)” value is on record?
A: high polyreactivity

Q: With “QVQLVESGGGLVQAGGSLRLSCAASGSTFYQYAAMGWYRQAPGKERELVAAISGRGTRTYYADSVKGRFTISRDNAKNTVYLQMNSLKPEDTAVYYCAAEVNIRQYGFDYWGQGTQVTVSS” as the sequence, how does the “polyreactivity (PSR sort gate)” value read?
A: high polyreactivity

Q: With “HVQLVESAGGLVQAGGSLSLSCAASGSTFKLYAMGRYRQAPGKESEFVAGISWRGGSTYYADSVKGRFTISRDNAKNTVYFQMNSLKPEDTAVYYCAARSFSNIGYHGYGYWGQGTQVTVSS” as the sequence, how does the “polyreactivity (PSR sort gate)” value read?
A: high polyreactivity

Q: For “QVQLVESGGGLVQAGGILRLSCAASGSTFYIYAMGWYRQAPGKERELVAAISTTDGTTYYADSVKGRFTISRDNAKNTVYLQMNSLKPEDTAVYYWAAEWFGSVQPAYDYWGQGTQVTVSS”, which “polyreactivity (PSR sort gate)” value is on record?
A: high polyreactivity

Q: For “QVQLVESVGGLVQAGGSLRLSCAASGRTFAQNALGWYRQAPGKERELVAAIRSGGRTNYADSVKGRFTISRDNAKNTVYLQMNSLKPEDTAVYYCAAEWGYWSFYLGRAKVEYWGQGTQVTVSS”, which “polyreactivity (PSR sort gate)” value is on record?
A: low polyreactivity

Q: For “QVQLVESGGGLVQAGGSLRLSCAASGSTVWWYAMGWDRQAPRKERELVAVITRSSDSTSYADSVKGRFTLSRDNAKNTVFLQMNSLKPEDTAVYYCAALYRSYRYEYYYWGQATQVTVSS”, which “polyreactivity (PSR sort gate)” value is on record?
A: high polyreactivity

Q: With “QVQLQESGGGLVQAGGSLRLSCAASGYISYWIYMGCYRQAPGKERELLPVLITVLVPIMRIACKAGFTISRDNAKNSVYLQMNSQKPEDTALYYCAVSWYNGDYFSYWGQGTQVTVSS” as the sequence, how does the “polyreactivity (PSR sort gate)” value read?
A: low polyreactivity

Q: With “QDKLVESGGGLVQAGGSLRLSCAASGSTSRDNAMVWYRQAPGKERELVAAITVIDGTTYYADSVKGRFTISRDNAKNTLYLQMNSLKPEDTAVYYCAADTIWFEYYYWGQGTQVTVSS” as the sequence, how does the “polyreactivity (PSR sort gate)” value read?
A: low polyreactivity

Q: For “QVHLVESGGGLVQAGGSLRLSCAATGSTFPNAMGWYRQAPGKERELVAAITYGGGSTYYADSVKGRFTISRDNAKNTVYLQMNSLIPEDTAVYYCNAPSRLSTIFYSGYDYWGQGTQVTVSS”, which “polyreactivity (PSR sort gate)” value is on record?
A: low polyreactivity

Q: For “QVQLVESGGGLVQAGGSLRLSCAASGLTFSGNVMGCYIQAPGKERELVAAIDRSGGSTYYADSVKGRFTISRDNAKNTVYLQMNSLKPEDTAVYYCAVSSYPNHSRSWDDYWGQGTQVTVSS”, which “polyreactivity (PSR sort gate)” value is on record?
A: low polyreactivity

Q: Which “polyreactivity (PSR sort gate)” value does the source give for “QVQLVESGGGLVQAGGSLRLSCAASGRIFGYNAMGWYRQAPGKERELVASITRGGSTNYADSVKGRFTISRDNAKNTVYLQMNSLKPEDTAVYYCATRWPHYGGYYYWGQGTQVTVSS” here?
A: high polyreactivity

Q: With “QDQLVESGGGLVQAGGSLRLSCAASGSNFVINAMGWYRQAPGKERELVAAISYSGTGTYYADSVKGRFTISRDNAKNTVYLQMNSLKPEDTAVYYCAGDYYYRYRIYDYWGQGTQVTVSS” as the sequence, how does the “polyreactivity (PSR sort gate)” value read?
A: low polyreactivity

Q: For “QVQLVESGGGFVQAGGSLRLSCAASGSTFPVYAMGWYRQAPGKERELVAAISRSGASTYYADSVKGRFTISRDNAKNTVYLQMNSLKPEDTAVYYCARGYQGRLKNEYWGQGTQVNVSS”, which “polyreactivity (PSR sort gate)” value is on record?
A: low polyreactivity

Q: For “QVQLHESGGGLVQEGGSQRLSCAASGNIFYTYAMRWYRHAPGKEREFDATINHGTSINYADSVKGRFTISRDNAKNTVYLQMNSLKPEDTAVYYCAADLSWTDNLFYWGQGTQVTVSS”, which “polyreactivity (PSR sort gate)” value is on record?
A: low polyreactivity

Q: For “QVQLVESGGGLVQAGGSLRLSCAASGSIFGPYAMGWYRQAPGKERELVAAITWTGGRTYYADSVKGRFTISRDNAKNTVYLQMNSLKPEDNAVYYCAADYSPSTWYLYYTLYYYWGQGTQVTVSS”, which “polyreactivity (PSR sort gate)” value is on record?
A: low polyreactivity

Q: With “QVQLVESGGGLVQAGGSLRLSCAASGRILNYYTMGWYRQAPGKERELVAAISGSDGNTYYADSVKGRFTISRDNAKNTVYLQKNSLKPEDTAVYYCSADLYDEWGQGTQVTVSS” as the sequence, how does the “polyreactivity (PSR sort gate)” value read?
A: low polyreactivity

Q: Which “polyreactivity (PSR sort gate)” value does the source give for “QVQLVESGGGLVQAGRSLRLSCAASGSIFSRNAMGWYRQAPGKERELVAAITGSASSTYYADSVKGRFTISRDNAKNTVYLQMNSLKPEDTAVYYCNAARVYLSECGQGTQVTVSS” here?
A: high polyreactivity

Q: With “QVKLVESGGALVQAGGSLRLSCAASGSTFGWYAMGRYRQAPGKERELVAGISSGGASTYYADSVKGRFTISRDNAKNTFYLQMNSLKPEDSAVYYCAKDQIFRGYKTKFGYWGQGTQLTVSS” as the sequence, how does the “polyreactivity (PSR sort gate)” value read?
A: low polyreactivity

Q: For “QVQLVESGGGLVQAGGSLRLSCAASGFTLRVNDMGWYRQAPGKERELVAGITVSGGSTYYADSVKGRFTISRDNAKNTVYLQMNSLKPEDTAVYYCNADNYENATGMDYWGQGTQVTVSS”, which “polyreactivity (PSR sort gate)” value is on record?
A: low polyreactivity

Q: With “QVQLVESGGGLVQAGGSLRLSCAASGRIIGYYVMGWYRQAPGKERELVAAISSRTGTTYYADSVKGRFTISRDYAKNTVYLQMNRLKPEDTAVYYCNARELTTYWSFDYHHSEYDYWGQGTQVTVSS” as the sequence, how does the “polyreactivity (PSR sort gate)” value read?
A: high polyreactivity

Q: Which “polyreactivity (PSR sort gate)” value does the source give for “QVQIVESGGGLVQAGGSLRLSCAASGSTFGKYAMGWYRQAPGKERELVAAITRRTGSTYYADSVKGRFTISRDNAKNTVYLQMNSLKPEDTAVYYCAARLPQYRYDYWGQGTQVTVSS” here?
A: high polyreactivity

Q: With “QVQLVESGGGLVQAGGSLRLSCAASGFTFLKNAMGWYRQAPGKERELVAAITSSGGRTYYADSVKGRFTISRDNAKYTVYLQMNSLKPEDTAVYYCNKGPLPGYDYWGQGNQVTVSS” as the sequence, how does the “polyreactivity (PSR sort gate)” value read?
A: high polyreactivity

Q: For “QVQLVESGGGLVQAGGSLRLSCAASGRIFAGYGMGWYRQAPGKARELVAAISSGGSTYYADSVKGRFTISRDNAKNTVYLQMNSLKPEDTAVYYCATDGQSVPDDYYQNVDYDYWGQGTQLTVSS”, which “polyreactivity (PSR sort gate)” value is on record?
A: low polyreactivity

Q: With “QVQLVESGGGLFQAGGSLSLSCAASGRNLSGYDMGWYRQAQGKERELVAAITRGGTTYYADSVKGRFTISRDNSKNTVYLQMNSLKADDTAVVYTVSYAQYDYWGQGTQVTVSS” as the sequence, how does the “polyreactivity (PSR sort gate)” value read?
A: low polyreactivity

Q: For “QVQLVESGGGLVQAGGSLRLSCAASGSILWENAKGWYRQAPGKERELVATISVSGGGTYYADSVKGRFTISRDNAKNTVYLQMNSLKPEDTAVYYCNARYGNESQGWEDYWGQGTQVTVSS”, which “polyreactivity (PSR sort gate)” value is on record?
A: low polyreactivity

Q: With “QVQLVESGGGLVQAGGSLRISCAASGLTFTSNVMGWYRQAPGKERELVAAISSGGSTYYADSVKGRFTISRDNAKNTVYLQMNSLKPEDTAVYYCNTKLWGQYDYWGQGTQVTVSS” as the sequence, how does the “polyreactivity (PSR sort gate)” value read?
A: low polyreactivity

Q: For “QVQLVESGGGLVQAGGSLRLSCAASGSIFPYYAMGWYRQAPGKERELVAAITWSGGNTYYADSVKGRFTISRDNAKNTVYLQMNSLKPEDTAVYYFNALYRKYTGYDGYDYWGQGTQVTVSS”, which “polyreactivity (PSR sort gate)” value is on record?
A: high polyreactivity

Source: the nanobody polyreactivity screen of Harvey et al. (2022)
